How the values were obtained:
[1] = Analytical hydrophobic interaction chromatography (HIC) profile, incl. after 40° C. stress; format: physicochemical; conditions: TSKgel Butyl-NPR, ammonium sulfate
[2] = system: huPBMCs in the presence of HEK-293 cells transfected with human MSLN; test: TNFα production by huPBMCs with HEK-293 cells transfected with human MSLN; format: cell-based; conditions: overnight, AlphaLISA
Procedure: Human Whole Blood was obtained from Bloodworks Northwest and collected in 10mL EDTA tubes. Human PBMCs were then isolated from the whole blood by Ficoll gradient centrifugation and resuspended in assay media (RPMI-1640 Medium supplemented with 10% Fetal Bovine Serum, 1 mM Sodium Pyruvate, 1× GlutaMAX-1, 1× Non-Essential Amino Acids, 10mM HEPES and 0.5% Penicillin/Streptomycin; all from Gibco). Tumor cells were removed from tissue culture flasks with HyQTASE (Hyclone), washed twice and resuspended in assay media.
Human PBMCs isolated as described above were resuspended in assay media, and plated in 96-well flat bottom microtiter plates (125,000/well). MSLN-expressing HEK-293cells were then added (25,000/well) along with titrating concentrations of conjugated or unconjugated antibodies. Mock transfected HEK-293 cells were used as a negative control. After overnight culture, supernatants were harvested, and TNFα levels were determined by AlphaLISA.

[3] = Tm of purified antibodies (Table 1); format: physicochemical; conditions: purified antibody
Procedure: Six humanized heavy chains were co-transfected with 5 humanized light chains into the ExpiCHO expression system in a 30mL culture. The supernatant was analyzed via Octet to determine off rates and any that retained binding and contained less mouse sequence, were purified and further characterized. Clones 6 and 37 were selected for further optimization. An additional mutation in CDRH2, G55A, was introduced to reduce chemical modification of the neighboring Asparagine (N) residue. These humanized sequences are represented in SEQ ID NOs. 1-15.

## SS1: chimeric monoclonal anti-mesothelin antibody IgG/K; VH SEQ ID NO: 25, VL SEQ ID NO: 26
[1]
  profile on an analytical HIC column: multiple variant species
[2]
  TNFα production from huPBMCs: did not stimulate TNFα production
[3]
  Tm ° C.: 69 °C
